Blank lines part the entries; values can stand above or below the binder they belong to. Numbered stars: 1 amine (or outer) side, 2 acyl side, 3 side chain; on linkers, the order of the positions; unused ones are H or OH. Bridge positions count the residues as written; N and C are the ends. Square brackets hold non-standard residues; d marks the D form. Ends that are not written are not given here. * marks the point of attachment. DM4 = maytansinoid, two hindering methyls on maytansine side, COc1cc2cc(c1Cl)N(C)C(=O)C[C@H](OC(=O)[C@H](C)N(C)C(=O)CCC(C)(C)S*)[C@]1(C)O[C@H]1[C@H](C)[C@@H]1C[C@@](O)(NC(=O)O1)[C@H](OC)/C=C/C=C(\C)C2; DM3 = maytansinoid, one hindering methyl on maytansine side, COc1cc2cc(c1Cl)N(C)C(=O)C[C@H](OC(=O)[C@H](C)N(C)C(=O)CCC(C)S*)[C@]1(C)O[C@H]1[C@H](C)[C@@H]1C[C@@](O)(NC(=O)O1)[C@H](OC)/C=C/C=C(\C)C2; disulfide linker, one methyl on bicycle side = not defined here; fluorescein = fluorescein label on the Lys side chain; unhindered disulfide linker = not defined here; 1Nal = N[C@@H](Cc1cccc2ccccc12)C(=O)O; TBMB = c1c(C[*:1])cc(C[*:3])cc1C[*:2]; disulfide linker = not defined here; Tle = CC(C)(C)[C@H](N)C(=O)O; DM1 = maytansinoid; βAla = NCCC(=O)O; Sar = CNCC(=O)O
Tests used:
[1] = biological target: dog MT1-MMP hemopexin domain (dog); assay: FP competition, dog MT1-MMP hemopexin domain
[2] = biological target: human MT1-MMP hemopexin domain (residues Cys319-Gly511, N-terminally His6-tagged soluble protein) (human) (UniProt P50281); assay: FP competition on human MT1-MMP hemopexin domain (footnote a: tracer 17-69-07-N040; footnote e: 17-69-07-N004)
[3] = biological target: human MT1-MMP hemopexin domain (residues Cys319-Gly511, N-terminally His6-tagged soluble protein) (human) (UniProt P50281); assay: FP competition, Human/cyno MT1-MMP hemopexin domain
[4] = biological target: human MT1-MMP hemopexin domain (residues Cys319-Gly511, N-terminally His6-tagged soluble protein) (human) (UniProt P50281); assay: FP competition on human MT1-MMP hemopexin domain (per paragraph 249; tracer not given)
[5] = biological target: human MT1-MMP hemopexin domain (residues Cys319-Gly511, N-terminally His6-tagged soluble protein) (human) (UniProt P50281); assay: FP competition on human MT1-MMP hemopexin domain, tracer 17-69-07-N040 (footnote f)
[6] = biological target: human MT1-MMP hemopexin domain (residues Cys319-Gly511, N-terminally His6-tagged soluble protein) (human) (UniProt P50281); assay: fluorescence polarisation with the fluoresceinated peptide

Binder: H-G[Sar][Sar][Sar][Sar][Sar][Sar][Sar][Sar][Sar][Sar]ACYNEFGCEDFYDIC (linker 13-19-26 via TBMB; not fully specified (C-terminus)) [17-69-07-N219]
- Kd [1]: 0.9 nM
- Kd [2]: 0.82 nM
- Kd [3]: 0.82 nM
- Kd [4]: 0.82 nM

Binder: Ac-G[Sar][Sar][Sar][Sar][Sar][Sar][Sar][Sar][Sar][Sar]ACYNEFGCEDFYDIC (linker 13-19-26 via TBMB; not fully specified (C-terminus)) [17-69-07-N225]
- Kd [4]: 0.95 nM

B1: BT17BDC-17 (peptide)
peptide: {DM1-unhindered disulfide linker}-[βAla][Sar][Sar][Sar][Sar][Sar][Sar][Sar][Sar][Sar][Sar]AC[dA]NE[1Nal][dA]CEDFYD[Tle]C
modifications: linker 13-19-26 via TBMB; reading uncertain; also: exact linker structure not given here
- Kd [2]: 0.7 nM

B2: BT17BDC-18 (peptide)
peptide: {DM1-disulfide linker, one methyl on bicycle side}-[βAla][Sar][Sar][Sar][Sar][Sar][Sar][Sar][Sar][Sar][Sar]AC[dA]NE[1Nal][dA]CEDFYD[Tle]C
modifications: linker 13-19-26 via TBMB; reading uncertain; also: exact linker structure not given here
- Kd [2]: 0.99 nM

B5: 17-69-07-N258 (peptide)
peptide: fluorescein-[βAla][Sar][Sar][Sar][Sar][Sar][Sar][Sar][Sar][Sar][Sar]AC[dA]NE[1Nal][dA]CEDFYD[Tle]C
modifications: linker 13-19-26 via TBMB; not fully specified (C-terminus); printed as Fluorescein-(bAla)-Sar10-A-(17-69-07) D-Ala1 1Nal4 D-Ala5 tBuGlyl1
- Kd [6]: 2.2 nM

Second part, the binder after the results:

- Kd [2]: 0.5 nM
B3: BT17BDC-19 (peptide)
peptide: {DM4-disulfide linker}-[βAla][Sar][Sar][Sar][Sar][Sar][Sar][Sar][Sar][Sar][Sar]AC[dA]NE[1Nal][dA]CEDFYD[Tle]C
modifications: linker 13-19-26 via TBMB; reading uncertain; also: exact linker structure not given here

- Kd [5]: 2.95 nM
B4: BT17BDC-20 (peptide)
peptide: {DM3-disulfide linker, one methyl on bicycle side}-[βAla][Sar][Sar][Sar][Sar][Sar][Sar][Sar][Sar][Sar][Sar]AC[dA]NE[1Nal][dA]CEDFYD[Tle]C
modifications: linker 13-19-26 via TBMB; reading uncertain; also: exact linker structure not given here

— patent publication US12318454
